{"source": "the supplement of paper PMC10567573", "parents": {"B1": {"name": "CDS2 (parent)", "chain": "IHSIALSTFASLIGPFGGFFASGF"}}}
{"variants_of": "B1", "assay": "protein stability index of a GFP-peptide fusion (GPS, HEK-293T) (PSI 1-6); higher = more stable", "conditions": "c terminus: a fixed tail appended"}
{"variant": "IHSIAWSTFASLIGPFGGFFASGF", "protein stability index": 2.43}
{"variant": "IHSIAYSTFASLIGPFGGFFASGF", "protein stability index": 3.33}
{"variant": "IHSIALSTFASLIGDFGGFFASGF", "protein stability index": 3.92}
{"variant": "IHSIALSTFASLIGYFGGFFASGF", "protein stability index": 1.75}
{"variant": "IHSIALSTFASLIGQFGGFFASGF", "protein stability index": 3.43}
{"variant": "IHSIALSTFASLIGRFGGFFASGF", "protein stability index": 1.88}
{"variant": "IHSIALSTFASLIGHFGGFFASGF", "protein stability index": 2.17}
{"variant": "IHSIALSTFASLIGLFGGFFASGF", "protein stability index": 4.3}
{"variant": "IHSIALSTFASLIGCFGGFFASGF", "protein stability index": 2.62}
{"variant": "IHSIALSTFASLIGWFGGFFASGF", "protein stability index": 2.2}
{"variant": "IHSIALSTFASLIGNFGGFFASGF", "protein stability index": 2.82}
{"variant": "IHSIALSTFASLIGGFGGFFASGF", "protein stability index": 3.77}
{"variant": "IHSIALSTFASLIGKFGGFFASGF", "protein stability index": 1.77}
{"variant": "IHSIALSTFASLIGTFGGFFASGF", "protein stability index": 3.98}
{"variant": "IHSIALSTFASLIGIFGGFFASGF", "protein stability index": 4.59}
{"variant": "IHSIALSTFASLIGSFGGFFASGF", "protein stability index": 2.34}
{"variant": "IHSIALSTFASLIGMFGGFFASGF", "protein stability index": 3.79}
{"variant": "IHSIALSTFASLIGFFGGFFASGF", "protein stability index": 2.46}
{"variant": "IHSIALSTFASLIGEFGGFFASGF", "protein stability index": 3.88}
{"variant": "IHSIALSTFASLIGAFGGFFASGF", "protein stability index": 2.41}
{"variant": "IHSIALSTDASLIGPFGGFFASGF", "protein stability index": 2.15}
{"variant": "IHSIALSTYASLIGPFGGFFASGF", "protein stability index": 1.62}
{"variant": "IHSIALSTQASLIGPFGGFFASGF", "protein stability index": 3.22}
{"variant": "IHSIALSTNASLIGPFGGFFASGF", "protein stability index": 2.11}
{"variant": "IHSIALSTEASLIGPFGGFFASGF", "protein stability index": 1.92}
{"variant": "IHSIALSTCASLIGPFGGFFASGF", "protein stability index": 2.62}
{"variant": "IHSIALSTGASLIGPFGGFFASGF", "protein stability index": 2.44}
{"variant": "IHSIALSTIASLIGPFGGFFASGF", "protein stability index": 3.79}
{"variant": "IHSIALSTSASLIGPFGGFFASGF", "protein stability index": 3.33}
{"variant": "IHSIALSTHASLIGPFGGFFASGF", "protein stability index": 1.51}
{"variant": "IHSIALSTWASLIGPFGGFFASGF", "protein stability index": 2.81}
{"variant": "IHSIALSTLASLIGPFGGFFASGF", "protein stability index": 3.88}
{"variant": "IHSIALSTPASLIGPFGGFFASGF", "protein stability index": 2.63}
{"variant": "IHSIALSTRASLIGPFGGFFASGF", "protein stability index": 3.28}
{"variant": "IHSIALSTFASLGGPFGGFFASGF", "protein stability index": 2.48}
{"variant": "IHSIALSTFASLAGPFGGFFASGF", "protein stability index": 2.25}
{"variant": "IHSIALSTFASLWGPFGGFFASGF", "protein stability index": 3.97}
{"variant": "IHSIALSTFASLPGPFGGFFASGF", "protein stability index": 2.92}
{"variant": "IHSIALSTFASLKGPFGGFFASGF", "protein stability index": 2.49}
{"variant": "IHSIALSTFASLEGPFGGFFASGF", "protein stability index": 2.6}
{"variant": "IHSIALSTFASLHGPFGGFFASGF", "protein stability index": 3.22}
{"variant": "IHSIALSTFASLTGPFGGFFASGF", "protein stability index": 2.77}
{"variant": "IHSIALSTFASLYGPFGGFFASGF", "protein stability index": 2.89}
{"variant": "IHSIALSTFASLSGPFGGFFASGF", "protein stability index": 2.8}
{"variant": "IHSIALSTFASLNGPFGGFFASGF", "protein stability index": 2}
{"variant": "IHSIALSTFASLFGPFGGFFASGF", "protein stability index": 3.52}
{"variant": "IHSIALSTFASLQGPFGGFFASGF", "protein stability index": 2.45}
{"variant": "IHSIALSTFASLLGPFGGFFASGF", "protein stability index": 2.64}
{"variant": "IHSIALSTFASLIGPFFGFFASGF", "protein stability index": 2.74}
{"variant": "IHSIALSTFASLIGPFVGFFASGF", "protein stability index": 2.5}
{"variant": "IHSIALSTFASLIGPFIGFFASGF", "protein stability index": 2.98}
{"variant": "IHSIALSTFASLIGPFAGFFASGF", "protein stability index": 2.41}
{"variant": "IHSIALSTFASLIGPFRGFFASGF", "protein stability index": 2.63}
{"variant": "IHSIALSTFASLIGPFEGFFASGF", "protein stability index": 3.13}
{"variant": "IHSIALSTFASLIGPFYGFFASGF", "protein stability index": 2.06}
{"variant": "IHSIALSTFASLIGPFKGFFASGF", "protein stability index": 2.22}
{"variant": "IHSIALSTFASLIGPFSGFFASGF", "protein stability index": 4.37}
{"variant": "IHSIALSTFASLIGPFCGFFASGF", "protein stability index": 3.58}
{"variant": "IHSIALSTFASLIGPFHGFFASGF", "protein stability index": 3.56}
{"variant": "IHSIALSTFASLIGPFMGFFASGF", "protein stability index": 2.12}
{"variant": "IHSIALSTFASLIGPFDGFFASGF", "protein stability index": 3.88}
{"variant": "IHSIALSTFASLIGPFQGFFASGF", "protein stability index": 2.83}
{"variant": "IHSIALSTFASLIGPFLGFFASGF", "protein stability index": 3.48}
{"variant": "IHSIALSTFASLIGPFPGFFASGF", "protein stability index": 2.78}
{"variant": "IHSIALSTFASLIGPFTGFFASGF", "protein stability index": 4.3}
{"variant": "IHSIALSTFASLIGPFGAFFASGF", "protein stability index": 2.37}
{"variant": "IHSIALSTFASLIGPFGLFFASGF", "protein stability index": 2.48}
{"variant": "IHSIALSTFASLIGPFGHFFASGF", "protein stability index": 2.38}
{"variant": "IHSIALSTFASLIGPFGMFFASGF", "protein stability index": 3.05}
{"variant": "IHSIALSTFASLIGPFGEFFASGF", "protein stability index": 2.89}
{"variant": "IHSIALSTFASLIGPFGIFFASGF", "protein stability index": 3.04}
{"variant": "IHSIALSTFASLIGPFGNFFASGF", "protein stability index": 2.01}
{"variant": "IHSIALSTFASLIGPFGKFFASGF", "protein stability index": 2.86}
{"variant": "IHSIALSTFASLIGPFGPFFASGF", "protein stability index": 2.83}
{"variant": "IHSIALSTFASLIGPFGDFFASGF", "protein stability index": 4.39}
{"variant": "IHSIALSTFASLIGPFGQFFASGF", "protein stability index": 3.3}
{"variant": "IHSIALSTFASLIGPFGFFFASGF", "protein stability index": 3.59}
{"variant": "IHSIALSTFASLIGPFGCFFASGF", "protein stability index": 2.46}
{"variant": "IHSIALSTFASLIGPDGGFFASGF", "protein stability index": 3.08}
{"variant": "IHSIALSTFASLIGPKGGFFASGF", "protein stability index": 3.11}
{"variant": "IHSIALSTFASLIGPVGGFFASGF", "protein stability index": 2.96}
{"variant": "IHSIALSTFASLIGPLGGFFASGF", "protein stability index": 1.91}
{"variant": "IHSIALSTFASLIGPHGGFFASGF", "protein stability index": 2.84}
{"variant": "IHSIALSTFASLIGPWGGFFASGF", "protein stability index": 2.49}
{"variant": "IHSIALSTFASLIGPQGGFFASGF", "protein stability index": 3.71}
{"variant": "IHSIALSTFASLIGPAGGFFASGF", "protein stability index": 3.6}
{"variant": "IHSIALSTFASLIGPTGGFFASGF", "protein stability index": 2.92}
{"variant": "IHSIALSTFASLIGPYGGFFASGF", "protein stability index": 2.37}
{"variant": "IHSIALSTFASLIGPMGGFFASGF", "protein stability index": 3.82}
{"variant": "IHSIALSTFASLIGPGGGFFASGF", "protein stability index": 4.52}
{"variant": "IHSIALSTFASLIGPIGGFFASGF", "protein stability index": 4.33}
{"variant": "IHSIALSTFASLIGPRGGFFASGF", "protein stability index": 2.29}
{"variant": "IHSIALSTFASLIGPPGGFFASGF", "protein stability index": 2.02}
{"variant": "IHSIALSTFASQIGPFGGFFASGF", "protein stability index": 4.09}
